14 compounds from patent US20250361274A1, “PEPTIDE AND PEPTIDE-CONTAINING AGENT” (PEPTIDREAM INC., priority 2022, published 2025) can be followed below.

Numbered stars: 1 amine (or outer) side, 2 acyl side, 3 side chain; on linkers, the order of the positions; unused ones are H or OH. Bridge positions count the residues as written; N and C are the ends. Square brackets hold non-standard residues; d marks the D form. Ends that are not written are not given here. Peptide text beside a SMILES is read from it. KCOpipzaa = N6-(4-(carboxymethyl)piperazine-1-carbonyl)-L-lysine, O=C(NCCCC[C@H](N[*:1])C(=O)[*:2])N1CCN(CC(=O)[*:3])CC1; F3aa = (S)-2-amino-3-[3-(carboxymethyl)phenyl]propanoic acid, O=C([C@H](Cc1cccc(CC(=O)[*:3])c1)N[*:1])[*:2]; 3Pal(6-Ph) = N[C@@H](Cc1ccc(-c2ccccc2)nc1)C(=O)O; Phe(4-COOH) = N[C@@H](Cc1ccc(C(=O)O)cc1)C(=O)O; NMePhe(4-Me) = CN[C@@H](Cc1ccc(C)cc1)C(=O)O; Bip = N[C@@H](Cc1ccc(-c2ccccc2)cc1)C(=O)O; Phe(3-Cl) = N[C@@H](Cc1cccc(Cl)c1)C(=O)O; Phe(4-F) = N[C@@H](Cc1ccc(F)cc1)C(=O)O; Ala(4-THP) = N[C@@H](CC1CCOCC1)C(=O)O; cisHyp = O=C(O)[C@@H]1C[C@H](O)CN1; NMeF = CN[C@@H](Cc1ccccc1)C(=O)O; hCit = NC(=O)NCCCC[C@H](N)C(=O)O; 4Pal = N[C@@H](Cc1ccncc1)C(=O)O; Aad = N[C@@H](CCCC(=O)O)C(=O)O; Cha = N[C@@H](CC1CCCCC1)C(=O)O; βAla = NCCC(=O)O

The first experiment deals with T1, BMP4 (Homo sapiens, UniProt P12644).
T1 sequence (P12644 293-408): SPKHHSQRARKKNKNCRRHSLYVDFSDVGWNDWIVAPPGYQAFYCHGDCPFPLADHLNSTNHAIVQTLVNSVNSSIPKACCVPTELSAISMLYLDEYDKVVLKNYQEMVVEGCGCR
The experiment is described as follows: BMP4 signal transduction inhibitory activity: SMAD1 phosphorylation by BMP4 stimulus, AlphaLISA SureFire, A549 cells. It is filed as cell-based. The following applies: BMP4 0.2 nM stimulus; peptide conc. in assay 2, 20, 200 nM. The protocol: In the present Example, a BMP4 signal transduction inhibitory activity of each peptide consisting of an amino acid sequence set forth in any of SEQ ID NOs: 5 to 240 and 243 to 421 synthesized in Example 10 was verified by phosphorylation of SMAD1 caused by BMP4 stimulus. A549 cells were cultured in MEM (Thermo Fisher Scientific) containing 10% FBS (Thermo Fisher Scientific), 1×Non-essential amino acids (Thermo Fisher Scientific), and 50 μg/mL Gentamicin. After TrypLE (Gibco) was used to peel the cells, seeding was performed in a 96-well plate for adhesion cells so that the number of cells would be 20,000 per well, followed by culturing for 48 hours. After the cells were cultured as described above, the culture medium was replaced with a peptide solution or recombinant Human Noggin Protein (R&D) solution as a positive control diluted to various concentrations in a nutrition-starved culture medium containing 0.1% BSA (Sigma) instead of FBS Thirty minutes after culturing, […], to stimulate it for 60 minutes. The culture medium was removed and the cells were lysed with Lysis Buffer provided with AlphaLISA (registered trademark) SureFire (registered trademark) Ultra SMAD1 (p-[…]/465) Assay kit (PerkinElmer). According to the protocol of the kit, a signal was detected using SpectraMax (registered trademark) Paradigm (registered trademark) multimode microplate reader (Molecular Devices). The obtained signal was analysed using GraphPad Prism (GraphPad Software). The % inhibition was calculated by considering non-stimulation as 100% inhibition and BMP stimulation only as 0% inhibition. Regarding SEQ ID NOs: 5 to 187, the concentrations of the peptides synthesized in the same manner as in Example 2 (shown as 2 in the row of Synthesis) were 0.02 nM, 0.2 nM, and 2 nM, and the concentrations of the peptides synthesized in the same manner as in Example 1 (shown as 1 in the row of Synthesis) were 0.2 nM, 2 nM, and 20 nM. The evaluation results were based on the results of evaluation using the peptides synthesized in the same manner as in Example 2. […] Regarding SEQ ID NOs: 243 to 321, the test was performed at the concentrations described in Table 6. […] Regarding SEQ ID NOs: 322 to 421, the test was performed at the concentrations described in Table 7. […] The evaluation tests of the signal transduction inhibitory activities of SEQ ID NOs: 87, 177, and 181 are as follows. Specifically, the inhibitory activity of BMP4 was evaluated in the same manner as in Example 11 that used A549 cells. Eight concentrations of the peptides were used at a common ratio of 1/3 starting from 2 nM. The inhibitory activity of BMP7 was evaluated in the same manner as in Example 12. Eight concentrations of the peptides were used at a common ratio of 1/3 starting from 100 nM. Note that recombinant Human Noggin Protein (R&D) as a positive control was used at the same concentration as that of the peptide. […] The inhibitory activity of BMP7 was evaluated using eight concentrations of the peptides at a common ratio of 1/3 starting from 1,000 nM in the same manner as in Example 12.
(Alpha assays give light when donor and acceptor beads are brought close together.)
Consider “372 ([Phe(3-Cl)]G[NMeF]G[Bip]GDD[Cha]A[NMeF]LHCG-NH2; not fully specified (N-terminus, bridges); also: cyclic peptide, linkage not given here) [compound 372]”, for which the “aLISA BMP4 (0.2 nM) % inh” value is reported as “ND (the inhibitory activity was less than 30% at the maximum concentration evaluated)”.

The experiment is the same for the next values; noted with them: class of inhibition of SMAD1 phosphorylation by BMP4 stimulus, AlphaLISA, A549 cells.
Take “179 ({CH2CO}-ERV[Phe(4-COOH)][Ala(4-THP)][KCOpipzaa]R[Bip]PY[F3aa][Bip]Y[Phe(4-COOH)][Phe(4-COOH)]SC[βAla][dE]-OH; thioether N-17; not fully specified) [compound 179]”: the “aLISA BMP4” value is “C (showed an inhibitory activity of less than 50% in 0.2 nM-addition zone and showed an inhibitory activity of 50% or more in 2 nM-addition zone were defined as B or C)”. Same read-out and setting: then “184 ({CH2CO}-ERVY[Ala(4-THP)][KCOpipzaa]R[Bip]PYP[Bip]Y[Phe(4-COOH)][Phe(4-COOH)]SC[βAla][dE]; thioether N-17) [compound 184]”, with “A (showed an inhibitory activity of 50% or more in a zone to which the peptide was added to in an amount of 0.2 nM)”. On to “185 ({CH2CO}-E[KCOpipzaa]V[Phe(4-COOH)][Ala(4-THP)]DR[Bip]PY[F3aa][Bip][Phe(4-F)][Phe(4-COOH)][4Pal]SC[βAla][dE]; thioether N-17) [compound 185]”, for which the “aLISA BMP4” value was “C (showed an inhibitory activity of less than 50% in 0.2 nM-addition zone and showed an inhibitory activity of 50% or more in 2 nM-addition zone were defined as B or C)”.

“182 ({CH2CO}-ERVY[Ala(4-THP)][KCOpipzaa]R[Bip]PY[F3aa][Bip]Y[Phe(4-COOH)][Phe(4-COOH)]SC[βAla][dE]-OH; thioether N-17; not fully specified) [compound 182]”: the “aLISA BMP4” value is “A (showed an inhibitory activity of 50% or more in a zone to which the peptide was added to in an amount of 0.2 nM)”. Same read-out and setting: then “187 ({CH2CO}-E[KCOpipzaa]V[Phe(4-COOH)][Ala(4-THP)]DR[Bip]PYP[Bip][Phe(4-F)][Phe(4-COOH)][4Pal]SC[βAla][dE]; thioether N-17) [compound 187]”, with “C (showed an inhibitory activity of less than 50% in 0.2 nM-addition zone and showed an inhibitory activity of 50% or more in 2 nM-addition zone were defined as B or C)”; and “169 ({CH2CO}-E[hCit]VY[Ala(4-THP)]DR[Bip]SYV[Bip]Y[Phe(4-COOH)][Phe(4-COOH)]HC[βAla][dE]-OH; thioether N-17; not fully specified) [compound 169]”, with “C (showed an inhibitory activity of less than 50% in 0.2 nM-addition zone and showed an inhibitory activity of 50% or more in 2 nM-addition zone were defined as B or C)”. On the same count and under the same terms, then “163 ({CH2CO}-ERVYVDR[Bip]SYY[Bip]Y[Phe(4-COOH)][Phe(4-COOH)]SC[βAla][dE]-OH; thioether N-17; not fully specified) [compound 163]”, with “A (showed an inhibitory activity of 50% or more in a zone to which the peptide was added to in an amount of 0.2 nM)”; and “180 ({CH2CO}-ERV[Phe(4-COOH)][Ala(4-THP)][KCOpipzaa]R[Bip]PY[cisHyp][Bip]Y[Phe(4-COOH)][Phe(4-COOH)]SC[βAla][dE]-OH; thioether N-17; not fully specified) [compound 180]”, with “A (showed an inhibitory activity of 50% or more in a zone to which the peptide was added to in an amount of 0.2 nM)”; and “183 ({CH2CO}-ERVY[Ala(4-THP)][KCOpipzaa]R[Bip]PY[cisHyp][Bip]Y[Phe(4-COOH)][Phe(4-COOH)]SC[βAla][dE]-OH; thioether N-17; not fully specified) [compound 183]”, with “A (showed an inhibitory activity of 50% or more in a zone to which the peptide was added to in an amount of 0.2 nM)”. For “186 ({CH2CO}-E[KCOpipzaa]V[Phe(4-COOH)][Ala(4-THP)]DR[Bip]PY[cisHyp][Bip][Phe(4-F)][Phe(4-COOH)][4Pal]SC[βAla][dE]; thioether N-17) [compound 186]”, the “aLISA BMP4” value was “A (showed an inhibitory activity of 50% or more in a zone to which the peptide was added to in an amount of 0.2 nM)”. On the same count and under the same terms, then “164 ({CH2CO}-ERVYVDR[Bip]SYV[Bip]Y[Phe(4-COOH)][Phe(4-COOH)]HC[βAla][dE]-OH; thioether N-17; not fully specified) [compound 164]”, with “A (showed an inhibitory activity of 50% or more in a zone to which the peptide was added to in an amount of 0.2 nM)”. On to “178 ({CH2CO}-ERV[Phe(4-COOH)][Ala(4-THP)]DR[Bip]PYV[Bip]Y[Phe(4-COOH)][Phe(4-COOH)]SC[βAla][dE]-OH; thioether N-17; not fully specified) [compound 178]”, for which the “aLISA BMP4” value is on record as “A (showed an inhibitory activity of 50% or more in a zone to which the peptide was added to in an amount of 0.2 nM)”.

The next experiment concerns the target T2, BMP7 (Homo sapiens, UniProt P18075).
T2 sequence (P18075 293-431): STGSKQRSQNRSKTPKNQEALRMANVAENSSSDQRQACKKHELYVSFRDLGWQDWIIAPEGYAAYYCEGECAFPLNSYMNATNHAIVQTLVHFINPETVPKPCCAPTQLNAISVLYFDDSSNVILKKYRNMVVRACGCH
Nature of the experiment: BMP7 signal transduction inhibitory activity: SMAD1 phosphorylation by BMP7 stimulus, A549 cells. The following applies: BMP7 10 nM stimulus; peptide conc. in assay 10, 30, 90 nM. It counts as cell-based. The protocol:
In the present Example, BMP7 signal transduction inhibitory activity of each peptide consisting of an amino acid sequence set forth in any of SEQ ID NOs: 5 to 240 and 243 to 421 synthesized in Example 10 was verified by phosphorylation of SMAD1 caused by BMP7 stimulus. The evaluation was performed using 10 nM of BMP7 instead of BMP 4. Regarding SEQ ID NOs: 5 to 240, the concentrations of the peptides synthesized in the same manner as in Example 2 (shown as 2 in the row of Synthesis) were 1 nM, 10 nM, and 100 nM, and the concentrations of the peptides synthesized in the same manner as in Example 1 (shown as 1 in the row of Synthesis) were 10 nM, 100 nM, and 1,000 nM, similarly with Example 11. […] Regarding SEQ ID NOs: 243 to 273 and SEQ ID NOs: 299 to 321, the test was performed at the concentrations (10, 100, 1,000 nM) described in Table 6. […] Regarding SEQ ID NOs: 274 to 298, the test was performed at the concentrations (100, 300, 1,000 nM) described in Table 6. […] Regarding SEQ ID NOs: 322 to 370 and SEQ ID NOs: 393 to 421, the test was performed at the concentrations (1, 10, 100 nM). […] Regarding SEQ ID NOs: 371 to 391, the test was performed at the concentrations (10, 30, 90 nM). […] The evaluation tests of the signal transduction inhibitory activities of SEQ ID NOs: 87, 177, and 181 are as follows. Specifically, the inhibitory activity of BMP4 was evaluated in the same manner as in Example 11 that used A549 cells. Eight concentrations of the peptides were used at a common ratio of 1/3 starting from 2 nM. The inhibitory activity of BMP7 was evaluated in the same manner as in Example 12. Eight concentrations of the peptides were used at a common ratio of 1/3 starting from 100 nM. Note that recombinant Human Noggin Protein (R&D) as a positive control was used at the same concentration as that of the peptide. […] The inhibitory activity of BMP7 was evaluated using eight concentrations of the peptides at a common ratio of 1/3 starting from 1,000 nM in the same manner as in Example 12.
As to “372 ([Phe(3-Cl)]G[NMeF]G[Bip]GDD[Cha]A[NMeF]LHCG-NH2; not fully specified (N-terminus, bridges); also: cyclic peptide, linkage not given here) [compound 372]”, the “aLISA BMP7 (10 nM) % inh” value was “G (showed less than 30% of inhibitory activity in 30 nM-addition zone and showed 30% or more of inhibitory activity in 90 nM-addition zone)”.

Still in this experiment, the particulars now being: Table 2-2; 277 from 1,000 nM (1/3), 417 from 300 nM (1/4).
Broadly, the IC50 is the concentration at which inhibition is half-maximal. In turn, `Cc1ccc(C[C@H]2C(=O)N[C@@H](CC(C)C)C(=O)N3C[C@@H](O)C[C@H]3C(=O)N[C@H](C(=O)NCCC(=O)N[C@H](CCC(=O)O)C(=O)O)CSCC(=O)N[C@@H](Cc3ccc(F)cc3)C(=O)NCC(=O)N(C)[C@@H](Cc3ccccc3)C(=O)NCC(=O)N[C@@H](Cc3ccc(-c4ccccc4)nc3)C(=O)NCC(=O)N[C@@H](CC(=O)O)C(=O)N[C@@H](CCC(=O)O)C(=O)N[C@@H](CC3CCCCC3)C(=O)N[C@@H](CCCC(=O)O)C(=O)N2C)cc1` [Peptide 417] ({CH2CO}-[Phe(4-F)]G[NMeF]G[3Pal(6-Ph)]GDE[Cha][Aad][NMePhe(4-Me)]L[cisHyp]C[βAla][dE]-OH; thioether N-14) had an IC50 of 15.6 nM.
